In US20200376136A1 (Regeneron, published 2020):
Substitutions are numbered along the chain they refer to. Read-outs that look alike come from different tables or passages of the source.

Columns and labels:
[1] = molecular target: T1, human six-transmembrane epithelial antigen of prostate 2 (STEAP2) (human, UniProt Q8NFT2 1-490); assay: FACS titration on C4-2 cells (endogenous STEAP2), 4-parameter fit
T1 construct: also called hSTEAP2
T1 sequence: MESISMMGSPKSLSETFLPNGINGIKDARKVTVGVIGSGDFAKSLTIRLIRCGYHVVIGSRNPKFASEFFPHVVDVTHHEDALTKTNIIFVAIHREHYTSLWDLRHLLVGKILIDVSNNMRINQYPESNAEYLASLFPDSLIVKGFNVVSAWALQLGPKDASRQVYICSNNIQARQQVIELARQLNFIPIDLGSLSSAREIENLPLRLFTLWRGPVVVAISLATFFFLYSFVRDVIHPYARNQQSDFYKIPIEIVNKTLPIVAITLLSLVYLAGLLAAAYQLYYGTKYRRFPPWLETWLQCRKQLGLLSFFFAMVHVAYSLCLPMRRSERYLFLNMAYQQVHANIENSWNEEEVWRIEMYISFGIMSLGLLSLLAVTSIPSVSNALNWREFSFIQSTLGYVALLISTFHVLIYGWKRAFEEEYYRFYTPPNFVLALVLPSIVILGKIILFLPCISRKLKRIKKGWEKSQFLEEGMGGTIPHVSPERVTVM
Protocol: (§1) Briefly, 1×10⁵ cells were incubated with 10 μg/ml of anti STEAP2 antibodies, or isotype control antibodies for 30 min on ice in antibody dilution buffer. Following one wash with antibody dilution buffer, cells were incubated with 10 μg/ml of PE conjugated anti-human or antimouse Fc secondary antibodies for 30 min on ice. Following one additional wash, samples were incubated with Cytofix (1% formaldehyde) for 20 minutes. After one final wash, samples were filtered through a Pall 96 well filtration block, run on a Hypercyt® cytometer and analyzed in ForeCyt™ (IntelliCyt, Albuquerque, N. Mex.). Mean fluorescence intensities (MFI) were expressed as fold change above unstained levels (background). The average fold above background at antibody concentrations of 100-300 nM were determined.

[2] = molecular target: T1, human six-transmembrane epithelial …; assay: FACS on C4-2 cells (endogenous STEAP2), MFI fold above unstained, average at 100-300 nM antibody
Protocol: as §1

[3] = molecular target: T1, human six-transmembrane epithelial …; assay: as above; remark: listed apart in the source
Protocol: as §1

[4] = molecular target: T1, human six-transmembrane epithelial …; assay: FACS on HEK293 cells (low STEAP2), MFI fold above unstained, average at 100-300 nM antibody
Protocol: as §1

[5] = molecular target: T1, human six-transmembrane epithelial …; assay: FACS titration on C4-2 cells (endogenous STEAP2), 4-parameter fit; remark: listed apart in the source
Protocol: as §1

human CD3 [6] = molecular target: T2, human CD3 (human, UniProt P07766 23-207; P04234 22-171); assay: FACS titration on Jurkat cells (human CD3)
T2 construct: As expressed on Jurkat cells or human T cells within the T cell receptor complex; also called hCD3
Protocol: (§2) Flow cytometric analysis was utilized to determine binding of STEAP2×CD3 bispecific antibodies to Jurkat, PC3_STEAP2/1 chimeric and cynomolgus T cells, followed by detection with a phycoerythrin (PE)-labeled anti-human IgG antibody. […] After incubation, the cells were washed twice with cold PBS containing 1% filtered FBS and a PE-conjugated anti-human secondary antibody was added to the cells and incubated for an additional 30 minutes. Wells containing no antibody or secondary antibody only were used as a control. After incubation, cells were washed, re-suspended in 200 μL cold PBS containing 1% filtered FBS and analyzed by flow cytometry on a BD FACS Canto II.

[7] = molecular target: T3, STEAP2/1 chimeric construct; assay: FACS titration on PC3 cells expressing the STEAP2/1 chimera
T3 construct: Expressed on engineered PC3 human prostate cancer cells; also called PC3_STEAP2/1
Protocol: as §2

human CD3 [8] = molecular target: T2, human CD3; assay: cell-based or functional assay
human CD3 [9] = molecular target: T2, human CD3; assay: cell-based or functional assay; remark: listed apart in the source
[10] = molecular target: T1, human six-transmembrane epithelial …; assay: cell-based or functional assay
human CD3 [11] = molecular target: T2, human CD3; assay: FACS titration of Jurkat cells

T2 sequence (P07766 23-207 limits assumed, chain 1 of 2): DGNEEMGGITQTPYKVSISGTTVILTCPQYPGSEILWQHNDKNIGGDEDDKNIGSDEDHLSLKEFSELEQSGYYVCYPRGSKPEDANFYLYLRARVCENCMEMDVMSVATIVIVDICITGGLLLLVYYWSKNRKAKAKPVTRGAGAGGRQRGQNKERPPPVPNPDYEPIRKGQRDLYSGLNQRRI
T2 sequence (P04234 22-171 limits assumed, chain 2 of 2): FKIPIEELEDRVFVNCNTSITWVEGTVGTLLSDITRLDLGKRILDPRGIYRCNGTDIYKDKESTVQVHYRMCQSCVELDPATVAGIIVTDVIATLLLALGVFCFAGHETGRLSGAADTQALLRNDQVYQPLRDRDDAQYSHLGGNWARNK

B1: H1M11243N (antibody, mouse IgG1, V domains shown)
VH: QVQLQQSGPGLVKPSQTLSLTCAISGDSVSSNSAAWNWIRQSPSRGLEWLGRTYYRSKWYNDYAVSVKSRITINPDTSKNQFSLHLNSVTPEDTAVYYCARAGIVVVPGPDIYYYYYYGMDVWGQGTTVTVSS
VL: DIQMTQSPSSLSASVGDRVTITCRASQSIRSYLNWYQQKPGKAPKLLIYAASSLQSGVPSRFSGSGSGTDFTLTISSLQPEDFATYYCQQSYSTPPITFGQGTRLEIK
Question: Which results are given for B1?
Answer: EC50 [1]: 23 nM; Avg F.A.B (fold above background) [2]: 116 fold above background

B2: H2M11163N (antibody, mouse IgG2, V domains shown)
VH: B1 VH with T17A, Q81H, V89M, G103R, D111E, I112V, G119D
VL: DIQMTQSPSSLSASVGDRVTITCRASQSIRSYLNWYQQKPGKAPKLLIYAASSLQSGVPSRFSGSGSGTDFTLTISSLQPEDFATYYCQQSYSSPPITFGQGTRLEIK
Question: Which EC50 [1] does the source give for B2 here?
Answer: 13 nM

Question: What about the “Avg F.A.B (fold above background)” value [2] of the same binder?
Answer: 256 fold above background

B3: H1H11896P2 (antibody, human IgG1, V domains shown)
VH: EVQLVESGGGLVQPGGSLRLSCAASRFTFSSYAMSWVRQAPGKGLEWVSLISGSGGRTWYADSVKGRFTISRDNSKNTLFLQMNSLRAEDTAVYYCAKEGGIFGVVTFFDYWGQGTLVTVSS
VL: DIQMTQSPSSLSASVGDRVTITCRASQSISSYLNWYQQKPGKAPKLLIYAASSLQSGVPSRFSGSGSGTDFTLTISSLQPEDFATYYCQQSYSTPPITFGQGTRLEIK
Question: With B3 as the binder, how does the “Avg F.A.B (fold above background)” value [3] read?
Answer: 6 fold above background

Question: What about the “Avg F.A.B (fold above background)” value [4] of the same binder?
Answer: 7 fold above background

Question: And the EC50 [5]?
Answer: 21 nM

B4: BSSTEAP2/CD3-004 (bispecific antibody, IgG4, V domains shown)
VH 1: QVQLVESGGGVVQPGRSLRLSCVASGFTISSYGMNWVRQAPGKGLEWVAVISYDGGNKYSVDSVKGRFTISRDNSKNTLYLQMNSLRAEDSAVYYCARGRYFDLWGRGTLVTVSS
VH 2: EVQLVESGGGLVQPGRSLRLSCAASGFTFADYTMHWVRQGPGTGLEWVSDIGWSGGSLGYADSVKGRFTISRDNAKNSLYLEMNNLRPEDTALYYCVKDKSGYGKFQYGLDVWGQGTTVTVSS
VL: DIQMTQSPSTLSASVGDRVTITCRASQSISSWLAWYQQKPGRAPNLLISKASSLKSGVPSRFSGSGSGTEFTLTVSSLQPDDFATYYCQQYYSYSYTFGQGTKLEIK
Question: B4 was tested. Which EC50 (human CD3 [6]) did it give?
Answer: 0.688 nM

Question: What about the EC50 [7] of the same binder?
Answer: 79.1 nM

Question: And the “hPBMC Proliferation [M] (EC50, with anti-CD28)” value (“hPBMC Proliferation [M]” for short) (human CD3 [8])?
Answer: 7.1e-13 M

Question: And the “T cells activation EC50 [M] (CD69+ of CD2+ T cells)” value (human CD3 [9])?
Answer: 9.4e-13 M

Question: What about the “C4-2 cells depletion EC50” value [10] of the same binder?
Answer: 0.00311 nM

B5: CD3-VH-P (antibody, V domains shown)
VH: EVQLVESGGGLVQPGRSLRLSCVASGFTFDDYSMHWVRQAPGKGLEWVSGISWNSGSKDYADSVKGRFTISRDNAKNSLYLQMNSLRAEDTALYYCAKYGSGYGKFYHYGLDVWGQGTTVTVSS
VL: DIQMTQSPSSLSASVGDSVTITCRASQSINNYLNWYQQKPGKAPKLLIYTASSLLSGVPSRFSGSGSGTDFTLTISGLHPEDFATYFCQQSFSTPPITFGQGTRLDIK
notes: Anti-CD3 antibody from a genetically modified mouse
Question: How did the EC50 (human CD3 [11]) turn out when B5 was run?
Answer: 1 to 40 nM

B6: BSSTEAP2/CD3-005 (bispecific antibody, IgG4, V domains shown)
VH 1: QVQLQQSGPGLVKPSQTLSLTCAISGDSVSSNRAAWNWIRQSPSRGLQWLGRTYYRSKWYNDYAVSLRSRITINPVTSKNQVALHMNSVTPEDTAVYYCARAGIVVVPGPETFYYYDHGLDVWGQGTTVTVSS
VH 2: QVQLVESGGGLVHPGRSLRLSCAASGFKFDDYTMHWVRQAPGKGLEWVSDISWNSGSKGYADSVKGRFTISRDNAKDSLYLQMDSLRAADTAFYYCAKDKSGYGHFYYYAMDVWGQGTTVTVSS
VL: DIQMTQSPSSLSASVGDRVTITCRASQSIRSYLNWYQQKPGKAPELLIHAASSLQSGVPSRFSGSGSGTDFTLTISSLQPEDFASYYCQQSYSAPPITFGQGTRLEIK
Question: Which EC50 (human CD3 [6]) does the source give for B6 here?
Answer: 14.1 nM

Question: What about the EC50 [7] of the same binder?
Answer: 31.8 nM

Question: What about the “hPBMC Proliferation [M]” value (human CD3 [8]) of the same binder?
Answer: 2.76e-12 M

Question: What about the “C4-2 cells depletion EC50” value [10] of the same binder?
Answer: 0.00729 nM

B7: BSSTEAP2/CD3-009 (bispecific antibody, IgG4, V domains shown)
VH 1: B6 VH 1 with A23V, S31T, R33S, Q48E, L67V, M86L, F113Y, D117Y
VH 2: B6 VH 2
VL: B6 VL with S28N, E45K, A50V, S85T, A94T, Q101H
Question: Which EC50 (human CD3 [6]) does the source give for B7 here?
Answer: 4.14 nM

Question: And the EC50 [7]?
Answer: 42.1 nM

Question: What about the “hPBMC Proliferation [M]” value (human CD3 [8]) of the same binder?
Answer: 3.68e-13 M

Question: And the “C4-2 cells depletion EC50” value [10]?
Answer: 0.00273 nM

B8: H2M11164N (antibody, mouse IgG2, V domains shown)
VH: B6 VH 1 with A23V, S31T, R33S, Q48E, L67V, M86L, F113Y, D117Y
VL: B6 VL with S28N, E45K, A50V, S85T, A94T, Q101H
Question: How did the EC50 [1] turn out when B8 was run?
Answer: 3.7 nM

Question: And the “Avg F.A.B (fold above background)” value [2]?
Answer: 360 fold above background

B9: BSSTEAP2/CD3-007 (bispecific antibody, V domains shown)
VH 1: B6 VH 1
VH 2: EVQLVESGGGLVQPGRSLRLSCAASGFTFADYTMHWVRQAPGKGLEWVSDISWNSGSIAYADSVKGRFTISRDNAKNSLYLQMNSLRTEDTAFYYCAKDSRGYGHYKYLGLDVWGQGTTVTVSS
VL: B6 VL
Question: What does the source list for B9?
Answer: EC50 (human CD3 [6]): 0.615 nM; EC50 [7]: 5.37 nM; hPBMC Proliferation [M] (EC50, with anti-CD28) (human CD3 [8]): 8.26e-11 M; C4-2 cells depletion EC50 [10]: 0.00811 nM

B10: H2M11162N (antibody, mouse IgG2, V domains shown)
VH: B6 VH 1
VL: B6 VL
Question: Which results are given for B10?
Answer: EC50 [1]: 4.9 nM; Avg F.A.B (fold above background) [2]: 365 fold above background

B11: BSSTEAP2/CD3-008 (bispecific antibody, IgG4, V domains shown)
VH 1: B1 VH with T17A, Q81H, V89M, G103R, D111E, I112V, G119D
VH 2: B6 VH 2
VL: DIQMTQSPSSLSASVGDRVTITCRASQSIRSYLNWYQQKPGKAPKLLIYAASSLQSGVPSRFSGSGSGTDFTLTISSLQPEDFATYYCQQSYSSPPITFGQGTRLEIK
Question: With B11 as the binder, how does the EC50 (human CD3 [6]) read?
Answer: 1.52 nM

Question: And the EC50 [7]?
Answer: 68.8 nM

Question: What about the “hPBMC Proliferation [M]” value (human CD3 [8]) of the same binder?
Answer: 7.76e-12 M

Question: And the “C4-2 cells depletion EC50” value [10]?
Answer: 0.00411 nM

B12: BSSTEAP2/CD3-001 (bispecific antibody, IgG4, V domains shown)
VH 1: B6 VH 1
VH 2: B5 VH with V23A, D59G
VL: B6 VL
Question: Which results are given for B12?
Answer: EC50 (human CD3 [6]): 7.19 nM; EC50 [7]: 3.44 nM; hPBMC Proliferation [M] (EC50, with anti-CD28) (human CD3 [8]): 1.6e-10 M; T cells activation EC50 [M] (CD69+ of CD2+ T cells) (human CD3 [9]): 1.61e-12 M; C4-2 cells depletion EC50 [10]: 0.00468 nM

B13: BSSTEAP2/CD3-006 (bispecific antibody, V domains shown)
VH 1: B6 VH 1
VH 2: B5 VH
VL: B6 VL
Question: Which results are given for B13?
Answer: EC50 (human CD3 [6]): 3.98 nM; EC50 [7]: 12.2 nM; hPBMC Proliferation [M] (EC50, with anti-CD28) (human CD3 [8]): 8.14e-13 M; C4-2 cells depletion EC50 [10]: 0.00393 nM

B14: H1H11897P2 (antibody, human IgG1, V domains shown)
VH: EVQLVESGGGLVQPGGSLRLSCAVSGFTFSSYAMSWVRQAPGKGLEWVSVISGSGDFTYHADSVKGRFTISRDNSKSTLYLQLNSLRAEDTAVYYCAKKGLRYFDWYDYWGQGTLVTVSS
VL: not shown
Question: Which “Avg F.A.B (fold above background)” value [3] does the source give for B14 here?
Answer: 29 fold above background

Question: And the “Avg F.A.B (fold above background)” value [4]?
Answer: 16 fold above background

Question: What about the EC50 [5] of the same binder?
Answer: > 50 nM

B15: BSSTEAP2/CD3-011 (bispecific antibody, V domains shown)
VH 1: QVQLVESGGGVVQPGRSLGLSCAASGFTFSSYGMHWVRQAPGKGLEWVAVIWYDGSNKYYVDSVKGRFTISRDNSKNTLYLQMNSLRAEDTAVYYCAREGLRFLENYYYYYGMDVWGQGTTVTVSS
VH 2: EVQLVQSGGGLVQPGRSLRLSCAASGFTFADYTMHWVRQTPGKGLEWVSGISWNSGSKDYADSVKGRFTISRDNAKNSLYLQMNSLRTEDTALYYCAKYGSGYGRYFFYAMDVWGQGTTVTVSS
VL: EIVLTQSPGTLSLSPGERATLSCRASQSISSTYLAWYQQRPGQAPRLLIYGASSRATGIPDRFSGSGSGTDFTLTISRLEPEDFAVYYCQQYGTSPYTFGQGTKLEIK
notes: also called BSSTEAP2/CD3-0011
Question: What does the source list for B15?
Answer: EC50 (human CD3 [6]): 8.63 nM; hPBMC Proliferation [M] (EC50, with anti-CD28) (human CD3 [8]): 8.62e-12 M
